These results are taken from paper doi:10.1101/2019.12.17.877662 (bioRxiv, 2019).

By Kd is commonly meant a measure of binding affinity in units of concentration.

Common to all, as to test: BLI
In general terms: In BLI a coated tip is dipped into the sample, and binding shifts an interference pattern.

One series deals with T1, TtRecF D57C;TtRecR (Thermus thermophilus;Thermus …, UniProt Q5SLM9;Q5SHY0 1-343;1-194, D57C|).
T1 sequence 1: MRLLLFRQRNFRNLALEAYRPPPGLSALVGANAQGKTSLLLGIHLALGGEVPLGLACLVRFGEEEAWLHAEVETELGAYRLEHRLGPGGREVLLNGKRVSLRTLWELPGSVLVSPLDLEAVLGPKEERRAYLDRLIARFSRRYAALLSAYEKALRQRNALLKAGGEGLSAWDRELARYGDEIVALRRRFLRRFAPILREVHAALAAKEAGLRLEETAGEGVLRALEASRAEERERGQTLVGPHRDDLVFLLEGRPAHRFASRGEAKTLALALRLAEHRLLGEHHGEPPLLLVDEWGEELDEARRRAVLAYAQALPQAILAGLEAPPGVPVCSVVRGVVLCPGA
T1 sequence 2: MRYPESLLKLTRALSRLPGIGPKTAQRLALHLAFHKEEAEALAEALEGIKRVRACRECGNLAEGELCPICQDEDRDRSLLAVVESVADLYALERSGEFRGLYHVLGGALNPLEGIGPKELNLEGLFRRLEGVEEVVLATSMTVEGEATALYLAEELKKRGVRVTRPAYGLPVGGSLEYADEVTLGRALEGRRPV

Another series concerns the target T2, TtRecR (Thermus thermophilus, UniProt Q5SHY0 1-194).
T2 sequence: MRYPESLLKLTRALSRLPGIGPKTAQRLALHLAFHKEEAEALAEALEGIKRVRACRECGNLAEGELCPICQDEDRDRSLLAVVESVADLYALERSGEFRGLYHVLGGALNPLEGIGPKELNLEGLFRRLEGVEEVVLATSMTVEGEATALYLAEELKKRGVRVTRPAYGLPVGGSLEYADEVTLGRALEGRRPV

For a further series, the target named is T3, TtRecR G169C (Thermus thermophilus, UniProt Q5SHY0 1-194, G169C).
T3 sequence: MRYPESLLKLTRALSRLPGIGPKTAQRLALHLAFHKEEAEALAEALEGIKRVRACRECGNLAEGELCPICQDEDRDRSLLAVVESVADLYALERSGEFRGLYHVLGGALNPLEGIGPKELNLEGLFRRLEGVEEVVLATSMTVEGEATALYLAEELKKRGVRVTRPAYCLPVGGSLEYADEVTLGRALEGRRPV

The target in the next series is T4, TtRecF D57C (Thermus thermophilus, UniProt Q5SLM9 1-343, D57C).
T4 sequence: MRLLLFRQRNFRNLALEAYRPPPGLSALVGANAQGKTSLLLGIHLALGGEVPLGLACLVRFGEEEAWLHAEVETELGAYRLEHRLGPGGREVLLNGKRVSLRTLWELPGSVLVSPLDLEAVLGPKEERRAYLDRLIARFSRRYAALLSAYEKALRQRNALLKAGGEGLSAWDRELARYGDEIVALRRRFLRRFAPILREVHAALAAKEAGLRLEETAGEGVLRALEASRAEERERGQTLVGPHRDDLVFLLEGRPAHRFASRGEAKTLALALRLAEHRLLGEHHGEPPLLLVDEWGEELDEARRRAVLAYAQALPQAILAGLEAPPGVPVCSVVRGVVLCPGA

In another series the target is T5, TtRecF S261C (Thermus thermophilus, UniProt Q5SLM9 1-343, S261C).
T5 sequence: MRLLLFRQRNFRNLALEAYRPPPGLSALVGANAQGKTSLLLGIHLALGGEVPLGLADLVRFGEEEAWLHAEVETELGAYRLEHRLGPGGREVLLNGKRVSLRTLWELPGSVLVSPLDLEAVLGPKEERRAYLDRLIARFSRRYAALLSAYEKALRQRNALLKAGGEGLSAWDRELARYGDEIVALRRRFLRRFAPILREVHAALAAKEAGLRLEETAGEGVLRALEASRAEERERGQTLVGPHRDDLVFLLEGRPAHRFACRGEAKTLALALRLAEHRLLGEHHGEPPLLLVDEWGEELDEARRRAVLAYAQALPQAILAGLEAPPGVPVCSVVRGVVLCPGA

Another series has as its target T6, TtRecF S261C;TtRecR (Thermus thermophilus;Thermus …, UniProt Q5SLM9;Q5SHY0 1-343;1-194, S261C|).
T6 sequence 1: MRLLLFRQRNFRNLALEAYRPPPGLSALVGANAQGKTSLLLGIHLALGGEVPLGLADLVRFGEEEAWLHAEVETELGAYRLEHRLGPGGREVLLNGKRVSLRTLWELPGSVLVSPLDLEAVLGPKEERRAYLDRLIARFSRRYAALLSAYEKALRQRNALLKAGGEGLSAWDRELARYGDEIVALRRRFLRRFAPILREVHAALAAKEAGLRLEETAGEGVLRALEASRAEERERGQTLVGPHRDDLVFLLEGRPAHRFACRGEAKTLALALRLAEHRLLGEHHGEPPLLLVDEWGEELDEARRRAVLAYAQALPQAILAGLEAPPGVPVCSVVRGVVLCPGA
T6 sequence 2: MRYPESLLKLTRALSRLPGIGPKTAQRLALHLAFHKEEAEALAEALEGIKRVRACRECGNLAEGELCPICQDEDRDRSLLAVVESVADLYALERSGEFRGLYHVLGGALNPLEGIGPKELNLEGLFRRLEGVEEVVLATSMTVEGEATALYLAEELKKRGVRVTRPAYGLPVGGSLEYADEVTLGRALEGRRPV

A further series concerns the target T7, TtSSB (Thermus thermophilus, UniProt Q5SLP9 1-263).
T7 sequence: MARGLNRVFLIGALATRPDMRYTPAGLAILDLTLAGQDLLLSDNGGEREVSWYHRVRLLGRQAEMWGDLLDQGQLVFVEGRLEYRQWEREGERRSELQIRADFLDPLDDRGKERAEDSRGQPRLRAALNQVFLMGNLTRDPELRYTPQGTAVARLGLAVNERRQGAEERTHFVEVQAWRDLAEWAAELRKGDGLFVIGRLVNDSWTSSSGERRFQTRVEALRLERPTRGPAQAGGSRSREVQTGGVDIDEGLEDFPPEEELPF

For GCAATGAAGTACGCTTGCCAGCTGCAGTCATGATTG (ssDNA) [biotinylated 36-mer ssDNA], the binding result with TtRecF D57C;TtRecR was “binds”; with TtRecR, “no binding”; with TtRecR G169C, “binds”; in the series with TtRecF S261C;TtRecR, “binds”. Further, the Kd with TtRecF D57C is 146 µM; with TtRecF S261C, 19.7 µM; in the series with TtSSB it was around 0.0072 µM.
